The target of test [1] is T1, recombinant human P-selectin Fc chimera (human, UniProt P16109 42-771).
T1 construct: also called P-sel-Ig; recombinant Ig chimera of P-selectin
In words: Biacore; biotinylated glycopeptide captured on a streptavidin chip, hP-sel-Ig flowed over (trace shown at 20 µg/ml) [lower left panel 'hP-sel-Ig (20 µg/ml)' (D in the legend]. An excerpt:
(§1) GSnP-6 bound to E- and L-selectin with even lower apparent affinity.
For orientation: SPR reads the build-up and loss of mass on a sensor chip optically.

The target in test [2] is T2, recombinant mouse P-selectin Fc chimera (mouse, UniProt Q01102 42-709).
T2 construct: also called murine P-selectin; P-sel-Ig; not shown: Ig (Fc) part of the chimera
T2 sequence (looked up): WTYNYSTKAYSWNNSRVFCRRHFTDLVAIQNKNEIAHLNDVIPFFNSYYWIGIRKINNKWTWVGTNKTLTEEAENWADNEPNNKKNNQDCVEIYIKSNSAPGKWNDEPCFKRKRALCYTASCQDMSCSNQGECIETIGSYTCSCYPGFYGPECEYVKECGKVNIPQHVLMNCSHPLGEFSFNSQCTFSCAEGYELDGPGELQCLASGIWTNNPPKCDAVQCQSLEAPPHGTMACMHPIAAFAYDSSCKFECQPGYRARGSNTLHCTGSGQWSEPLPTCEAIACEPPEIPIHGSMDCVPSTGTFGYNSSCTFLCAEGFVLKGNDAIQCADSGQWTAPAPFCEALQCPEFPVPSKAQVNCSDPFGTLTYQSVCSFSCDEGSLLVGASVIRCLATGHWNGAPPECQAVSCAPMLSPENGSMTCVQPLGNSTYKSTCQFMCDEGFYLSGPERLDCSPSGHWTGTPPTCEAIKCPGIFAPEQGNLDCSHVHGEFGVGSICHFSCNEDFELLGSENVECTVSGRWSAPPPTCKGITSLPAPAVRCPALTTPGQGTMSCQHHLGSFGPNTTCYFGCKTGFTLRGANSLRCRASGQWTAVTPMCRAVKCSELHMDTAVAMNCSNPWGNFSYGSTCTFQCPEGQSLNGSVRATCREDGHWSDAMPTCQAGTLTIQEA
Put plainly: Biacore; biotinylated glycopeptide captured on a streptavidin chip, mP-sel-Ig flowed over (trace shown at 20 µg/ml) [lower middle panel 'mP-sel-Ig (20 µg/ml)' (E in the legend].
Excerpt: as §1

From US20190300577A1 (BETH ISRAEL DEACONESS MEDICAL CENTER, published 2019) come the findings set out here.

Ends that are not written are not given here.

T1 sequence (P16109 42-771, change not shown): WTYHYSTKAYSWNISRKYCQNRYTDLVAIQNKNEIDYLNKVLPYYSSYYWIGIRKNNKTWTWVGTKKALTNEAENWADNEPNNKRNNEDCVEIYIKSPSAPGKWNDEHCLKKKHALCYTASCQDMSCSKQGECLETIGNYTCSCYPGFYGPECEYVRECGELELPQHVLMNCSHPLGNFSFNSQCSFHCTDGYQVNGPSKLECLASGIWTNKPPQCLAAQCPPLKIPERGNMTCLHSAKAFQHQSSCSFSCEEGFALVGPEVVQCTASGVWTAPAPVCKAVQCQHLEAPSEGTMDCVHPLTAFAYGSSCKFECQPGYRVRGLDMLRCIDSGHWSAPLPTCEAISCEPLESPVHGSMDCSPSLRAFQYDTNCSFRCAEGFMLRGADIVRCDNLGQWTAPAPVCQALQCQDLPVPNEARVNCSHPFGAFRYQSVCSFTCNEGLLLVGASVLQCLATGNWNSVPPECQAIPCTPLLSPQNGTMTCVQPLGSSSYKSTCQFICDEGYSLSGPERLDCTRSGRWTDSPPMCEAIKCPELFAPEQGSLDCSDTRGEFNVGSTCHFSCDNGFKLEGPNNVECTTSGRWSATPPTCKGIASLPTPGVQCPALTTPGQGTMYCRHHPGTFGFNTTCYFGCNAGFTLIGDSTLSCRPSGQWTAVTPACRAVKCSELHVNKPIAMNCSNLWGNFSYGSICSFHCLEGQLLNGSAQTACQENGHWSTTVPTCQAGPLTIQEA

B1: GSP-6 (peptide, UniProt Q14242 45-61, looked up)
peptide: EYEYLDYDFLPET(Core‑2 O‑glycan hexasaccharide with sLe^x)EPPE
modifications: also: tyrosine O-sulfate, positions not given here
notes: Synthetic glycosulfopeptide
What is called Kd is a measure of binding affinity in units of concentration. For B1, the figures for the Kd in test [1] and in test [2] were about 9 nM and about 128 nM, respectively.
